Target: the molecule itself
Test: SEC; purified recombinant WT, S287A and S287D PKM2 expressed in bacteria; size exclusion chromatography with molecular mass standards

Row | Protein | stoichiometry N
1 | purified recombinant S287A PKM2 expressed in bacteria (enzyme, PKM2 S287A, recombinant; construct, tag and limits not described; source: expressed in bacteria, purified recombinant) not shown | 2
2 | purified recombinant S287D PKM2 expressed in bacteria (enzyme, PKM2 S287D (phospho-mimetic), recombinant; construct, tag and limits not described; source: expressed in bacteria, purified recombinant) not shown | 4

Reference: publication PMC10847417, “CIP2A induces PKM2 tetramer formation and oxidative phosphorylation in non-small cell lung cancer” (Cell Discovery, 2024)
